Measured values from PMC7721913 (The Journal of Cell Biology, 2020).

Assays:
[1] = test system: CB and distal axon compartments of DRG neurons; assay: Western blot of KIF5 and KLC in cell body and distal axon lysates; type: cell-based, rat; settings: Campenot CB vs distal axon lysates
[2] = test system: SFPQ; assay: PRM-based quantification of KIF5 and KLC in SFPQ immunoprecipitations; type: binding, rat; settings: KIF5A vs KIF5B or KIF5C, KLC1 vs KLC2; three independent experiments
[3] = test system: SFPQ; assay: Coimmunoprecipitation of endogenous SFPQ from DRG lysate, Western blot; type: binding, rat; settings: DRG sensory neuron lysate
[4] = test system: HA-SFPQ; assay: Coimmunoprecipitation of HA-SFPQ with KLC1/KIF5A constructs in HEK 293T cells; settings: Myc-KLC1 without C-terminal region vs WT, n = 4, P = 0.0033

Row | Molecule | compartment localization (in words) [1] | relative abundance in SFPQ immunoprecipitate (in words) [2] | coimmunoprecipitation with SFPQ (in words) [3] | reduction of binding to SFPQ [4] [%]
1 | KLC1: kinesin light chain 1 (protein) MHDNMSTMVYMKEEKLEKLTQDEIISKTKQVIQGLEALKNEHNSILQSLLETLKCLKKDDESNLVEEKSSMIRKSLEMLELGLSEAQVMMALSNHLNAVESEKQKLRAQVRRLCQENQWLRDELANTQQKLQKSEQSVAQLEEEKKHLEFMNQLKKYDDDISPSEDKDSDSSKEPLDDLFPNDEDDPGQGIQQQHSSAAAAAQQGGYEIPARLRTLHNLVIQYASQGRYEVAVPLCKQALEDLEKTSGHDHPDVATMLNILALVYRDQNKYKDAANLLNDALAIREKTLGRDHPAVAATLNNLAVLYGKRGKYKEAEPLCKRALEIREKVLGKDHPDVAKQLNNLALLCQNQGKYEEVEYYYQRALEIYQTKLGPDDPNVAKTKNNLASCYLKQGKFKQAETLYKEILTRAHEREFGSVDDENKPIWMHAEEREECKGKQKDGSSFGEYGGWYKACKVDSPTVTTTLKNLGALYRRQGKFEAAETLEEAALRSRKQGLDNVHKQRVAEVLNDPENVEKRRSRESLNVDVVKYESGPDGGEEVSMSVEWNGMRKMKLGLVK | localize to both CB and distal axon compartments | approximately twice as abundant | preferentially coimmunoprecipitates | 
2 | KLC1 or its C-terminal mutant (ΔTail) (protein, UniProt P37285 1-560, looked up, or C-terminal tail deletion mutant) Kinesin light chain 1: MHDNMSTMVYMKEEKLEKLTQDEIISKTKQVIQGLEALKNEHNSILQSLLETLKCLKKDDESNLVEEKSSMIRKSLEMLELGLSEAQVMMALSNHLNAVESEKQKLRAQVRRLCQENQWLRDELANTQQKLQKSEQSVAQLEEEKKHLEFMNQLKKYDDDISPSEDKDSDSSKEPLDDLFPNDEDDPGQGIQQQHSSAAAAAQQGGYEIPARLRTLHNLVIQYASQGRYEVAVPLCKQALEDLEKTSGHDHPDVATMLNILALVYRDQNKYKDAANLLNDALAIREKTLGRDHPAVAATLNNLAVLYGKRGKYKEAEPLCKRALEIREKVLGKDHPDVAKQLNNLALLCQNQGKYEEVEYYYQRALEIYQTKLGPDDPNVAKTKNNLASCYLKQGKFKQAETLYKEILTRAHEREFGSVDDENKPIWMHAEEREECKGKQKDGSSFGEYGGWYKACKVDSPTVTTTLKNLGALYRRQGKFEAAETLEEAALRSRKQGLDNVHKQRVAEVLNDPENVEKRRSRESLNVDVVKYESGPDGGEEVSMSVEWNGMRKMKLGLVK |  |  |  | ~50
3 | KIF5C: kinesin heavy chain KIF5C (protein, UniProt O60282 1-957, looked up) Kinesin heavy chain isoform 5C: MADPAECSIKVMCRFRPLNEAEILRGDKFIPKFKGDETVVIGQGKPYVFDRVLPPNTTQEQVYNACAKQIVKDVLEGYNGTIFAYGQTSSGKTHTMEGKLHDPQLMGIIPRIAHDIFDHIYSMDENLEFHIKVSYFEIYLDKIRDLLDVSKTNLAVHEDKNRVPYVKGCTERFVSSPEEVMDVIDEGKANRHVAVTNMNEHSSRSHSIFLINIKQENVETEKKLSGKLYLVDLAGSEKVSKTGAEGAVLDEAKNINKSLSALGNVISALAEGTKTHVPYRDSKMTRILQDSLGGNCRTTIVICCSPSVFNEAETKSTLMFGQRAKTIKNTVSVNLELTAEEWKKKYEKEKEKNKTLKNVIQHLEMELNRWRNGEAVPEDEQISAKDQKNLEPCDNTPIIDNIAPVVAGISTEEKEKYDEEISSLYRQLDDKDDEINQQSQLAEKLKQQMLDQDELLASTRRDYEKIQEELTRLQIENEAAKDEVKEVLQALEELAVNYDQKSQEVEDKTRANEQLTDELAQKTTTLTTTQRELSQLQELSNHQKKRATEILNLLLKDLGEIGGIIGTNDVKTLADVNGVIEEEFTMARLYISKMKSEVKSLVNRSKQLESAQMDSNRKMNASERELAACQLLISQHEAKIKSLTDYMQNMEQKRRQLEESQDSLSEELAKLRAQEKMHEVSFQDKEKEHLTRLQDAEEMKKALEQQMESHREAHQKQLSRLRDEIEEKQKIIDEIRDLNQKLQLEQEKLSSDYNKLKIEDQEREMKLEKLLLLNDKREQAREDLKGLEETVSRELQTLHNLRKLFVQDLTTRVKKSVELDNDDGGGSAAQKQKISFLENNLEQLTKVHKQLVRDNADLRCELPKLEKRLRATAERVKALESALKEAKENAMRDRKRYQQEVDRIKEAVRAKNMARRAHSAQIAKPIRPGHYPASSPTAVHAIRGGGGSSSNSTHYQK | localize to both CB and distal axon compartments |  |  | 
4 | KLC2: kinesin light chain 2 (protein, UniProt Q9H0B6 1-622, looked up) Kinesin light chain 2: MAMMVFPREEKLSQDEIVLGTKAVIQGLETLRGEHRALLAPLVAPEAGEAEPGSQERCILLRRSLEAIELGLGEAQVILALSSHLGAVESEKQKLRAQVRRLVQENQWLREELAGTQQKLQRSEQAVAQLEEEKQHLLFMSQIRKLDEDASPNEEKGDVPKDTLDDLFPNEDEQSPAPSPGGGDVSGQHGGYEIPARLRTLHNLVIQYASQGRYEVAVPLCKQALEDLEKTSGHDHPDVATMLNILALVYRDQNKYKEAAHLLNDALAIREKTLGKDHPAVAATLNNLAVLYGKRGKYKEAEPLCKRALEIREKVLGKFHPDVAKQLSNLALLCQNQGKAEEVEYYYRRALEIYATRLGPDDPNVAKTKNNLASCYLKQGKYQDAETLYKEILTRAHEKEFGSVNGDNKPIWMHAEEREESKDKRRDSAPYGEYGSWYKACKVDSPTVNTTLRSLGALYRRQGKLEAAHTLEDCASRNRKQGLDPASQTKVVELLKDGSGRRGDRRSSRDMAGGAGPRSESDLEDVGPTAEWNGDGSGSLRRSGSFGKLRDALRRSSEMLVKKLQGGTPQEPPNPRMKRASSLNFLNKSVEEPTQPGGTGLSDSRTLSSSSMDLSRRSSLVG | localize to both CB and distal axon compartments |  |  | 
5 | WT KIF5A: kinesin heavy chain KIF5A (protein, UniProt Q6QLM7 2-1027, looked up) Kinesin heavy chain isoform 5A: AETNNECSIKVLCRFRPLNQAEILRGDKFIPIFQGDDSVIIGGKPYVFDRVFPPNTTQEQVYHACAMQIVKDVLAGYNGTIFAYGQTSSGKTHTMEGKLHDPQLMGIIPRIARDIFNHIYSMDENLEFHIKVSYFEIYLDKIRDLLDVTKTNLSVHEDKNRVPFVRGCTERFVSSPEEILDVIDEGKSNRHVAVTNMNEHSSRSHSIFLINIKQENIETEQKLSGKLYLADLAGSEKVSKTGAEGAVLDEAKNINKSLSALGNVISALAEGTKSYVPYRDSKMTRILQDSLGGNCRTTMFICCSPSSYNDAETKSTLMFGQRAKTIKNTASVNLELTAEQWKKKYEKEKEKTKAQKETIAKLEAELSRWRNGENVPETERLAGEDSALAAEICEETPVNDNSSIVVRIAPEERQKYEEEIRRLYKQLDDKDDEINQQSQLIEKLKQQMLDQEELLVSTRGDNEKVQRELSHLQSENDAAKEEVKEVLQALEELAVNYDQKSQEVEEKSQQNQLLVDELSQKVATMLSLESEPQRLQEVSGHQRKRIAEVLNGLMKDLSEFSVIVGNGEIKLPVEISGAIEEEFTVARLYISKIKSEVKSVVKRCRQLENLQVECHRKMEVTGRELSSCQLLISQHEAKIRSLTEYMQTVELKKRHLEESYDSLSDELAKLQAQETVHEVALKDKEPDTQDAEEVKKALELQMENHREAHHRQLARLRDEINEKQKTIDELKDLDQKLQLELEKLQADYERLKNEENEKSAKLQELTFLYERHEQSKQDLKGLEETVARELQTLHNLRKLFVQDVTTRVKKSAEMEPEDSGGIHSQKQKISFLENNLEQLTEVHKQLVRDNADLRCELPKLEKRLRATAERVKALEGALKEAKEGAMKDKRRYQQEVDRIKEAVRYKSSGKRGHSAQIAKPVRPGHYPASSPTNPYGTRSPECISYTNNLFQNYQNLHLQAAPSSTSDVYFASNGATSVAPLASYQKANTDNGNATDINDNRSDLPCGYEAEDPAKLFPLHQETAAS | localize to both CB and distal axon compartments | approximately twice as abundant | preferentially coimmunoprecipitates | 
6 | KIF3C: kinesin transporting RNA granules in neurons (protein, UniProt O55165 1-796, looked up) Kinesin-like protein KIF3C: MASKTKASEALKVVARCRPLSRKEEAAGHEQILTMDVKLGQVTLRNPRAAPGELPKTFTFDAVYDASSKQADLYDETVRPLIDSVLQGFNGTVFAYGQTGTGKTYTMQGTWVEPELRGVIPNAFEHIFTHISRSQNQQYLVRASYLEIYQEEIRDLLSKEPGKRLELKENPETGVYIKDLSSFVTKNVKEIEHVMNLGNQARAVGSTHMNEVSSRSHAIFVITVECSERGSDGQDHIRVGKLNLVDLAGSERQNKAGPNTPGGPATQSTAGGGGGGGGTSGSGSSGERPKEASKINLSLSALGNVIAALAGNRSTHIPYRDSKLTRLLQDSLGGNAKTIMVATLGPASHSYDESLSTLRFANRAKNIKNKPRVNEDPKDTLLREFQEEIARLKAQLEKKGMLGKRPRRKSSRRKKAVSAPAGYPEGAVIEAWVAEEEDDNNNNHRPPQPTLEAALEKNMENYLQEQKERLEEEKAAIQDDRSLVSEEKQKLLEEKEKMLEDLKREQQATELLAAKYKAMESKLLIGGRNIMDHTNEQQKMLELKRQEIAEQKRREREMQQEMLLRDEETMELRGTYSSLQQEVEVKTKKLKKLYAKLQAVKAEIQDQHEEYIRVRQDLEEAQNEQTRELKLKYLIIENFIPPEEKNKIMNRLFLDCEEEQWKFQPLVPAGVNNSQMKKRPTSAVGYKRPISQYARVAMAMGSHPRYRAENIMFLELDVSPPAIFEMEFSHDQEQDPRVLHMERLMRLDSFLERPSTSKVRKSRSWCQSPQRPPPPSTVHASMASAPLHPATVVDHD |  |  | none of these kinesins significantly coimmunoprecipitates with SFPQ | 
